From the Human Domainome abundance scans (Beltran et al. 2025)

B1: Protein C-ets-1, residues 55 to 135; numbered along this chain, P14921 (parent)
chain: GFTKEQQRLGIPKDPRQWTETHVRDWVMWAVNEFSLKGVDFQKFCMNGAALCALGKDCFLELAPDFVGDILWEHLEILQKE

Variants of: B1
Assay: abundance fitness (aPCA) (normalised: wild type 0, dead -1); higher = more abundant; growth selection in yeast, the domain comes from the species named
Details: Homo sapiens

Abundance fitness: each site, then its substitutions
K43: D -0.2 | H -0.187 | I -0.424 | T -0.302 | S -0.185 | F -0.494 | R -0.007 | E -0.283 | Q -0.086 | M -0.315 | N -0.049 | Y -0.351 | V -0.425 | C -0.206 | G -0.289
A49: F -0.339 | K 0.085 | D -0.04 | Y -0.262 | W -0.3 | T -0.048 | P -0.137 | Q -0.011 | H -0.058 | N -0.139 | V -0.162 | M -0.055 | G -0.126 | R -0.013 | C -0.372 | I -0.237 | E 0.02 | L -0.132
V39: L -0.141 | T -0.387 | A -0.511 | C -0.194 | Q -0.683 | Y -0.688 | R -0.749 | I -0.061 | N -0.755 | K -0.533 | D -0.699 | F -0.239 | W -0.445 | H -0.537 | M -0.267 | G -0.714 | S -0.624
N32: F -0.399 | E -0.042 | M -0.119 | V -0.111 | H 0.032 | R 0.019 | W -0.332 | S -0.008 | K 0.028 | I -0.193 | P -0.49 | Y -0.327 | Q 0.003 | T -0.042 | G -0.018 | L -0.179
D40: S -0.164 | V -0.209 | W -0.77 | G -0.546 | P -0.343 | N -0.146 | M -0.368 | Y -0.651 | H -0.225 | Q -0.045 | L -0.482 | F -0.685 | E -0.059 | I -0.32 | T -0.363 | K -0.234 | R -0.245 | C -0.134 | A -0.294
C45: R -0.024 | V -0.05 | T -0.007 | S 0.01 | K -0.067 | W -0.041 | Q -0.002 | E 0.022 | P -0.344 | N 0.116 | A 0.053 | M -0.019 | L -0.087 | H 0.052 | F -0.028 | Y -0.032
A50: F -0.375 | P -0.811 | I -0.236 | K 0.042 | D 0.026 | C -0.116 | E 0.02 | M -0.007 | T -0.026 | H -0.076 | G -0.202 | Y -0.351 | L -0.202 | W -0.548 | R -0.063 | Q 0.015
N47: K -0.204 | S -0.003 | E -0.165 | W -1.01 | V -0.903 | M -0.881 | G -0.185 | D -0.007 | T 0.065 | P 0.014 | H -0.152 | L -0.879 | Q -0.277 | C -0.223
G38: W -0.467 | K -0.055 | I -0.428 | N 0.052 | D -0.039 | F -0.43 | T -0.201 | M -0.273 | V -0.476 | S -0.123 | R -0.18 | A -0.202 | H 0 | C -0.334 | E -0.103 | L -0.492 | Q -0.221 | P -0.172
Q42: F -0.664 | R -0.017 | M -0.237 | T -0.052 | A -0.071 | K -0.075 | L -0.307 | H -0.068 | Y -0.291 | W -0.681 | N -0.047 | D -0.029 | P -0.214 | I -0.619 | C -0.259 | V -0.358 | E 0.021 | G 0.007 | S -0.007
F41: T 0.007 | S -0.042 | K -0.072 | N -0.039 | Y 0.055 | D -0.053 | Q -0.134 | M 0.056 | C -0.034 | R -0.094 | V 0.044 | E -0.031 | W -0.1 | H 0.045 | I 0.022 | G -0.128 | P 0.059 | L 0.051
F44: R -0.939 | G -1.02 | M -0.275 | I -0.38 | D -0.724 | H -0.89 | S -0.76 | V -0.539 | K -1.04 | W -0.138 | P -0.892 | Q -1.08 | A -0.769 | T -0.766 | N -1.01 | C -1.01 | E -0.73
L51: C -0.803 | E -0.952 | G -1.03 | M -0.11 | K -1.08 | I -0.15 | D -0.97 | H -0.813 | A -0.847 | F -0.894
F34: R -0.3 | A -0.493 | D -0.623 | W -0.039 | H -0.084 | I -0.9 | C -0.428 | Y -0.023 | L -0.276 | N -0.244 | Q -0.358 | S -0.52 | E -0.425 | P -0.886 | K -0.175 | M -0.362 | T -0.743
K37: V -0.017 | F -0.199 | E 0.044 | M -0.146 | L -0.161 | P -0.043 | H -0.048 | N -0.033 | Y -0.255 | G -0.054 | Q 0.005 | I -0.064 | A -0.046 | W -0.213 | S -0.033 | D -0.022 | C -0.128 | R -0.076 | T -0.027
M46: Y -0.203 | C -0.317 | T -0.477 | Q -0.335 | G -0.671 | F -0.028 | L -0.074 | I -0.154 | D -0.777 | E -0.991 | R -0.507 | A -0.652 | W -0.631 | H -0.441 | K -0.376 | P -0.852 | V -0.234 | S -0.724
L36: S -0.751 | V -0.276 | I -0.215 | D -0.763 | R -1.05 | P -0.725 | F -0.139 | W -0.29 | M -0.343 | E -1 | Y -0.539 | K -0.58 | G -0.661 | N -0.691 | A -0.52 | Q -0.624 | T -0.697 | C -0.332
E33: C -0.132 | A -0.071 | G -0.539 | R -0.042 | H -0.006 | Y -0.099 | W -0.179 | F -0.134 | S -0.117 | P -0.796 | L -0.503 | K -0.001 | N -0.078 | M -0.316 | I -0.498 | Q -0.099 | T -0.063
G48: W -0.797 | Q -0.931 | P -1.02 | E -0.806 | A -0.972 | R -0.933 | C -0.884 | N -0.758 | V -0.805 | L -1.05 | K -0.911 | S -0.911 | I -1.03 | M -1.07 | H -0.94
S35: P -0.625 | G 0.012 | C -0.072 | N -0.178 | V -0.381 | Q 0.062 | K -0.012 | I -0.539 | D 0.017 | Y -0.288 | W -0.559 | L -0.364 | A -0.069 | T -0.034 | M -0.142 | F -0.413 | R -0.029
